Laboratory results taken from patent publication US20030125523A1 (VEGENICS, published 2003).
Each block holds one molecule with its values, some of them ahead of it.

How the values were obtained:
[1] = biological target: NP-1 expressed on PAE-NP-1 cells (UniProt O14786); assay: competition of 125I-hVEGF165 (1 ng/ml) binding to PAE-NP-1 cells by 20 µg/ml GST fusion
[2] = biological target: T1, soluble Neuropilin-1-Ig fusion protein (extracellular domain of mouse NP-1 fused to the human IgG Fc-part) (mouse; human, UniProt P97333 22-856); assay: precipitation of 35S-labelled growth factor with NP-1-Ig on protein A sepharose, SDS-PAGE (FIG. 7)
T1 construct: extracellular domain; Made in transfected 293T cells and captured on protein A sepharose; also called NP-1-Ig; soluble NP-1-Ig; not shown: human IgG Fc-part encoded by the pIgplus vector (Ingenius)
T1 sequence (looked up): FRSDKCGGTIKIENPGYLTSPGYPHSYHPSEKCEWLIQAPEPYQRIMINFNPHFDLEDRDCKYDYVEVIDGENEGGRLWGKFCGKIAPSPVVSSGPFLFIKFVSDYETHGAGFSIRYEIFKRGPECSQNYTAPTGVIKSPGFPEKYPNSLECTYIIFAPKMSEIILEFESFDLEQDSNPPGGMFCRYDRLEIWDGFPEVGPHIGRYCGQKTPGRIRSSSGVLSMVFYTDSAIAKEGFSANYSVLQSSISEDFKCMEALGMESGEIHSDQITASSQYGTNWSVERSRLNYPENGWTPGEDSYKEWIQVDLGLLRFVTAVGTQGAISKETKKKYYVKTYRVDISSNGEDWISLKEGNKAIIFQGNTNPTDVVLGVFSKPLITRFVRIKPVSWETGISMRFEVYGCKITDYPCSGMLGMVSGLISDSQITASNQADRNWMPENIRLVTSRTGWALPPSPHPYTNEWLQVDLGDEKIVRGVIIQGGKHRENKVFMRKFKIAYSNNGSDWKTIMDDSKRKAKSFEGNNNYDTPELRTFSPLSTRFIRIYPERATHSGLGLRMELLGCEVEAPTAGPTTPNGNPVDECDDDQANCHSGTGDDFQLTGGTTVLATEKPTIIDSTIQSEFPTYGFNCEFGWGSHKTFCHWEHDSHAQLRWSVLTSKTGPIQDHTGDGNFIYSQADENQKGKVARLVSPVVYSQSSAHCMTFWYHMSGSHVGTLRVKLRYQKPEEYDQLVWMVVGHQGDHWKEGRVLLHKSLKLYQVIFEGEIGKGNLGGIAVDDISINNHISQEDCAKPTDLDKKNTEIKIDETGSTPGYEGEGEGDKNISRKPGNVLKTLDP

[3] = biological target: T1, soluble Neuropilin-1-Ig fusion protein …; assay: precipitation of 35S-labelled growth factor with NP-1-Ig on protein A sepharose, SDS-PAGE (FIG. 6)
[4] = biological target: T1, soluble Neuropilin-1-Ig fusion protein …; assay: precipitation of 35S-labelled growth factor from conditioned medium with NP-1-Ig on protein A sepharose, SDS-PAGE
[5] = biological target: T1, soluble Neuropilin-1-Ig fusion protein …; assay: precipitation of 35S-labelled growth factor from conditioned medium with NP-1-Ig on protein A sepharose, SDS-PAGE (FIG. 3)
Protocol: 293-T or 293EBNA cells were similarly transfected with plasmids encoding hVEGF₁₆₅, mVEGF-B₁₆₇, mVEGF-B₁₈₆, hVEGF-C, hVEGF-D, PlGF-1 or PlGF-2, and the transfected cells were metabolically labeled 24 hours post transfection with 100 μCi/ml Pro-mix TML-³⁵S (Amersham) for 6 to 7 hours. 10 μg/ml heparin was added to the labeling medium to facilitate the release of the heparin sulphate-binding growth factors from the cell surface and pericellular matrix. Metabolically labeled media, with the exception of the medium used for VEGF transfection, were immunodepleted of endogenous VEGF by immunoprecipitating with VEGF antibody for two hours. Similar amounts of media containing the metabolically labeled growth factors were then used for immunoprecipitation or for receptor binding analysis. Growth factors were incubated for 3 hours at room temperature with receptor-Igs in binding buffer (phosphate buffered saline (PBS), 0.5% BSA, 0.2% Tween 20). The sepharose beads were then washed once with ice cold binding buffer and three times with PBS and analyzed by 15% SDS-PAGE.
Immunoprecipitations were carried out using specific antibodies against VEGF₁₆₅, VEGF-B₁₆₇, VEGF-B₁₈₆, VEGF-C, VEGF-D and protein A sepharose. […] In contrast, no significant binding was detected between NP-1-Ig and hVEGF-D or PlGF-1. […]

Chain of NP-1 expressed on PAE-NP-1 cells (O14786 22-923 limits assumed): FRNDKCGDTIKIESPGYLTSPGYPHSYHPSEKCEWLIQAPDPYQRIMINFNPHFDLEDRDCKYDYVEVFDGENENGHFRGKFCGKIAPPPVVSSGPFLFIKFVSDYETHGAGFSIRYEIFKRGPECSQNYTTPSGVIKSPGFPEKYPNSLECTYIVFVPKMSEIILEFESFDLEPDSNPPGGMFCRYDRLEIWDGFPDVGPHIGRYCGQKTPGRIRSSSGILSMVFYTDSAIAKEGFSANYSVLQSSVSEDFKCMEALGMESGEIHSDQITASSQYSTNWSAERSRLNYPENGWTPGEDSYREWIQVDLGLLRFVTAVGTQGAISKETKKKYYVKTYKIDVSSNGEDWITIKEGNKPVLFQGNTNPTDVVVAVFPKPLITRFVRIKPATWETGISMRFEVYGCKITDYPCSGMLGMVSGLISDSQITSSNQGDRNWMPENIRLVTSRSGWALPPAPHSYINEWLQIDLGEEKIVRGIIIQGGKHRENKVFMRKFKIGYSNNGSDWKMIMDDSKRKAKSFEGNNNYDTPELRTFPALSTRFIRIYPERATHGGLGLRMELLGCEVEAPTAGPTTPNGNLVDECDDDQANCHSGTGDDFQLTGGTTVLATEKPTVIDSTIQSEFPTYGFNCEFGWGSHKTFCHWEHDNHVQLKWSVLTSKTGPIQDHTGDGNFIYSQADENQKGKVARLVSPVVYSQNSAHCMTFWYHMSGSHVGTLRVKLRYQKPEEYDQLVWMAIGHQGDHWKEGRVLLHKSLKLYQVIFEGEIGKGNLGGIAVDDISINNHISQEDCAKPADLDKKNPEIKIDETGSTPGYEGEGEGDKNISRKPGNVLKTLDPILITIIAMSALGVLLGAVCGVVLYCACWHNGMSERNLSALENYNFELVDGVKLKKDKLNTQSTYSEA

- percent competition [1]: 50%
Molecule: GST-VEGF-B167 exon 6B fusion protein (GST fused to amino acids 117-161 of mVEGF-B167) (from UniProt P49766 117-161)

- binding result [2]: binds
B1: human VEGF-C (full length) (ligand, UniProt P49767 32-419, looked up)
chain: FESGLDLSDAEPDAGEATAYASKDLEEQLRSVSSVDELMTVLYPEYWKMYKCQLRKGGWQHNREQANLNSRTEETIKFAAAHYNTEILKSIDNEWRKTQCMPREVCIDVGKEFGVATNTFFKPPCVSVYRCGGCCNSEGLQCMNTSTSYLSKTLFEITVPLSQGPKPVTISFANHTSCRCMSKLDVYRQVHSIIRRSLPATLPQCQAANKTCPTNYMWNNHICRCLAQEDFMFSSDAGDDSTDGFHDICGPNKELDEETCQCVCRAGLRPASCGPHKELDRNSCQCVCKNKLFPSQCGANREFDENTCQCVCKRTCPRNQPLNPGKCACECTESPQKCLLKGKKFHHQTCSCYRRPCTNRQKACEPGFSYSEEVCRCVPSYWKRPQMS
notes: 35S labelled, from conditioned medium of transfected cells; also called hVEGF-C; full length VEGF-C

- binding result [3]: no binding
B2: mVEGF-BkEx1-5 (ligand, mouse, UniProt P49766 22-136, looked up)
chain: PVSQFDGPSHQKKVVPWIDVYARATCQPREVVVPLSMELMGNVVKQLVPSCVTVQRCGGCCPDDGLECVPTGQHQVRMQILMIQYPSSQLGEMSLEEHSQCECRPKKKESAVKPD
notes: domain: exons 1-5; also called murine VEGF-BkEx1-5; construct containing exons 1-5 of murine VEGF-B

- binding result [4]: binds
B3: human VEGF165 (ligand, UniProt P15692-4 27-191, looked up)
chain: APMAEGGGQNHHEVVKFMDVYQRSYCHPIETLVDIFQEYPDEIEYIFKPSCVPLMRCGGCCNDEGLECVPTEESNITMQIMRIKPHQGQHIGEMSFLQHNKCECRPKKDRARQENPCGPCSERRKHLFVQDPQTCKCSCKNTDSRCKARQLELNERTCRCDKPRR
notes: also called hVEGF165; rhVEGF165

- binding result [5]: no binding
B4: PlGF-1 (ligand, UniProt P49763-2 19-149, looked up)
chain: LPAVPPQQWALSAGNGSSEVEVVPFQEVWGRSYCRALERLVDVVSEYPSEVEHMFSPSCVSLLRCTGCCGDENLHCVPVETANVTMQLLKIRSGDRPSYVELTFSQHVRCECRPLREKMKPERCGDAVPRR
notes: 35S labelled, from conditioned medium of transfected cells; also called placenta growth factor isoform 1

- binding result [4]: binds
B5: mouse VEGF-B167 (ligand, UniProt P49766-2 22-188, looked up)
chain: PVSQFDGPSHQKKVVPWIDVYARATCQPREVVVPLSMELMGNVVKQLVPSCVTVQRCGGCCPDDGLECVPTGQHQVRMQILMIQYPSSQLGEMSLEEHSQCECRPKKKESAVKPDSPRILCPPCTQRRQRPDPRTCRCRCRRRRFLHCQGRGLELNPDTCRCRKPRK
notes: 35S metabolically labelled, from conditioned medium of transfected cells; also called mVEGF-B167
